These results are taken from publication PMC2716513.

Test [1] has as its target ADAMTS13 (wild-type recombinant ADAMTS13 with a carboxy-terminal V5 tag) (UniProt Q76LX8).
In test [2] the target is ADAMTS13 P475S mutant (UniProt Q76LX8).
Test [3] addresses ADAMTS13 (wild-type recombinant ADAMTS13 with a carboxy-terminal V5 tag) (UniProt Q76LX8). The source holds these as a separate data set.

On to “von Willebrand Factor (VWF) (from UniProt P04275 764-2813) (natural protein)”, for which, in test [1], the reactivity of the mAb Wh2-11-1 to intracellular ADAMTS13 (flow cytometry, permeabilized HEK293 cells) after incubation with VWF at 37°C, fold increase is greater than 10 fold. Moreover, the fluorescence intensity of the mAb Wh-2-11-1 on the P475S mutant ADAMTS13 (flow cytometry) on addition of VWF, fold increase (data not given) in test [2] was found to be 1.9 fold. The fluorescence intensity of the mAb Wh-2-11-1 on wild-type ADAMTS13 (flow cytometry) on addition of VWF, fold increase (data not given) in test [3] turned out to be 3.5 fold.
